{
  "source": "patent US20170051065A1",
  "about": "(Hoffmann-La Roche, published 2017)",
  "key": {"[1]": {"target": "human mutant CSF-1R L301S Y969F (human) (UniProt P07333)", "assay": "cell-based or functional assay"}, "[2]": {"target": "human wildtype CSF-1R (wt CSF-1R) (human, UniProt P07333 20-972)", "assay": "cell-based or functional assay"}},
  "data": [
    {"substance": "goat polyclonal anti-CSF-1R antibody ab10676 (abcam)", "values": [
      {"measurement": "Mutant CSF-1R IC30 (cell viability of NIH3T3 mutant CSF-1R spheroids, CellTiterGlo)", "setting": "[1]", "result": "> 20", "unit": "µg/mL"},
      {"measurement": "inhibition of cell viability at 20 µg/ml (mutant CSF-1R spheroids)", "setting": "[1]", "result": 0, "unit": "%"},
      {"measurement": "wtCSF-1R IC30 (cell viability of NIH3T3-CSF-1R spheroids, CellTiterGlo)", "setting": "[2]", "result": 14.2, "unit": "µg/mL"}
    ]}
  ]
}
